How the values were obtained:
[1] = biological target: T1, rhesus CD70 on LCL8664 cells (rhesus, UniProt F7GPA5 123-316); experiment: flow cytometry on rhesus LCL8664 cells, goat anti human IgG1 FITC [panel Rhesus monkey]
T1 construct: whole, on cells
T1 sequence: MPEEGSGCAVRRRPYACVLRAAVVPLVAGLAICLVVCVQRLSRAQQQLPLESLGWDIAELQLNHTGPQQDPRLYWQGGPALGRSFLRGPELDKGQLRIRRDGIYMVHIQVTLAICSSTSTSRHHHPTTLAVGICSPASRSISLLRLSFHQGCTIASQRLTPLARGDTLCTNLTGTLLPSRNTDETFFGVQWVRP

[2] = biological target: T2, human CD70 expressed on the surface of cells (human, UniProt P32970 1-193); experiment: FACS MFI at 37 C, Raji cells; reference SGN70
T2 construct: whole, on cells; also called cell surface expressed CD70; CD70 on cells
T2 sequence (looked up): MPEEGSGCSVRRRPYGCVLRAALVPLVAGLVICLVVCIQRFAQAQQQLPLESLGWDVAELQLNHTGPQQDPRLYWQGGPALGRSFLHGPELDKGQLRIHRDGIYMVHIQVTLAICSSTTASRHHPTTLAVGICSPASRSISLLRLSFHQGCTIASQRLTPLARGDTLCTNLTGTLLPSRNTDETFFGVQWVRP
Procedure: (§1) Several cancer cell lines were tested by FACS analysis for binding of ARGX-110 and SGN70 (described in US2010/0129362) at saturating mAb concentrations (at least 2 μg/ml). This was either done at 4° C. (1 hour incubation of cells with mAbs) or at 37° C. (15 minutes incubation of cells with mAbs). Binding was detected using anti-hIgG1-Fc-FITC (AF006, Binding Site) or anti-hIgG1-Fc-PE antibody (eBioscience, 12-4998). Fluorescence was measured using a flow cytometer.

[3] = biological target: T3, human-mouse CD70 chimera chim-3 (Flag-TNC-CD70); experiment: ELISA; chimera captured by anti-Flag mAb
T3 construct: also called chimera 3
T3 chain: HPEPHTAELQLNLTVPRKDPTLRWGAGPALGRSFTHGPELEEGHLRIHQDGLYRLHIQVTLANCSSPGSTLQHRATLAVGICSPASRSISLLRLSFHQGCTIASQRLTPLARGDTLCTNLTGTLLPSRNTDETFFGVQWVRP

[4] = biological target: T4, human-mouse CD70 chimera chim-4 (Flag-TNC-CD70) (Mus musculus (Mouse), UniProt O55237 54-192); experiment: ELISA; chimera captured by anti-Flag mAb
T4 construct: also called chimera 4
T4 chain: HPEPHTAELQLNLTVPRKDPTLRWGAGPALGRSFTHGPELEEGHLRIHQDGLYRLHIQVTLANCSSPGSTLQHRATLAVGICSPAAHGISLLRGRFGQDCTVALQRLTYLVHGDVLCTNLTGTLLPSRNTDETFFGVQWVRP

[5] = biological target: T2, human CD70 expressed on the surface of …; experiment: FACS MFI at 37 C, MHHPREB1 cells; reference SGN70
Procedure: as §1

- EC50 (read off the curve) [1]: ~0.2 µg/mL
- Signal in FACS of ARGX-110/signal in FACS of SGN70 [2]: 1.2 ratio
- Signal in FACS of ARGX-110/signal in FACS of SGN70 [5]: 1.2 ratio
B1: ARGX-110 (non-fucosylated 41D12 human IgG1) (antibody, V domains shown)
VH: EVQLVESGGGLVQPGGSLRLSCAASGFTFSVYYMNWVRQAPGKGLEWVSDINNEGGTTYYADSVKGRFTISRDNSKNSLYLQMNSLRAEDTAVYYCARDAGYSNHVPIFDSWGQGTLVTVSS
VL: QAVVTQEPSLTVSPGGTVTLTCGLKSGSVTSDNFPTWYQQTPGQAPRLLIYNTNTRHSGVPDRFSGSILGNKAALTITGAQADDEAEYFCALFISNPSVEFGGGTQLTVLG
notes: also called 41D12 (ARGX-110)
- binding result [3]: no binding (tested: dilution series from 10 µg/ml)
- binding result [4]: no binding (tested: dilution series from 10 µg/ml)

From US20150266963A1 (ARGEN X B V, published 2015)
